From publication PMC9653972, “Thermophilic Inorganic Pyrophosphatase Ton1914 from Thermococcus onnurineus NA1 Removes the Inhibitory Effect of Pyrophosphate” (International Journal of Molecular Sciences, 2022)

Substrate: O=P(O)(O)OP(=O)(O)O
Test: purified protein
Type: biochemical, Thermococcus onnurineus
Details: standard assay: 2 mM MgCl2, 50 mM Tris-HCl, 80 °C, optimum pH 9.0 (pH of the kinetic run not stated)

B1: Ton1914 (Thermococcus onnurineus NA1) (protein)
chain: MNPFHELEPGPEVPEVVYALIEIPKGSRNKYELDKKTGLLKLDRVLYSPFFYPVDYGIIPQTWYDDGDPFDIMVIMREPVYPLTIVEARPIGIMKMEDSGDKDWKVLAVPVEDPYFNDWKDIDDVPKAFLDEIAHFFQRYKELQGKVTTVEGWGTAEEAKREILRAIEMYKEKFGKKE
notes: about 120 kDa native-PAGE, homo-hexamer; pET28a Nco I/Xho I, E. coli BL21(DE3), heat-purified 80 °C; EC 3.6.1.1, Family I
Which Km does the source give for B1 here?
Its Km is 1116 µM.

What about the kcat of the same protein?
The kcat was 30000 s⁻¹.

What about the kcat/Km of the same protein?
Its kcat/Km is 2.68e+07 M⁻¹ s⁻¹.
